# Patent US20150087577A1 (POLYPHOR, published 2015)
# Bridges are numbered along the chain shown (N, C = ends). [ ]: non-standard residue; d: D form. Phe(4-F) = N[C@@H](Cc1ccc(F)cc1)C(=O)O; 2Nal = N[C@@H](Cc1ccc2ccccc2c1)C(=O)O; Cit = NC(=O)NCCC[C@H](N)C(=O)O
# Biological target: human CXCR4 (human, UniProt P61073 1-352)
# Assay: cell-based or functional assay
# Sequence of human CXCR4 (P61073 whole entry): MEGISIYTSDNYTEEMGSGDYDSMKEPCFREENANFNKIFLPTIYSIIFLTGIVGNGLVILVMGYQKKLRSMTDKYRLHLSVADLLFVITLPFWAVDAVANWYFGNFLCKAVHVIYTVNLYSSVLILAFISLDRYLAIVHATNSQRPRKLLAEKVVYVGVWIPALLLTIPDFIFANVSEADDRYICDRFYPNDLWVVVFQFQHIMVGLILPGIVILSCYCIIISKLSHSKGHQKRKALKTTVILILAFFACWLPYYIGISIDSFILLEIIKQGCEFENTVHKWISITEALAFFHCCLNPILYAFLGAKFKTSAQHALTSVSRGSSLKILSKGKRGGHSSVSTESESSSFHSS
Binder,IC50 (nM) Ca2+ assay (method 2) [nM],IC50 (nM) Ca2+ assay (method 1) [nM]
cyclo(YRICRG[dP]RR[2Nal]CYQK[dP]P) (disulfide 4-11; SMILES CC[C@H](C)[C@@H]1NC(=O)[C@H](CCCNC(=N)N)NC(=O)[C@H](Cc2ccc(O)cc2)NC(=O)[C@@H]2CCCN2C(=O)[C@H]2CCCN2C(=O)[C@H](CCCCN)NC(=O)[C@H](CCC(N)=O)NC(=O)[C@H](Cc2ccc(O)cc2)NC(=O)[C@@H]2CSSC[C@H](NC1=O)C(=O)N[C@@H](CCCNC(=N)N)C(=O)NCC(=O)N1CCC[C@@H]1C(=O)N[C@@H](CCCNC(=N)N)C(=O)N[C@@H](CCCNC(=N)N)C(=O)N[C@@H](Cc1ccc3ccccc3c1)C(=O)N2) [Example 71],2.7,
cyclo(YRWCRG[dP]RR[2Nal]CYQK[dP]P) (disulfide 4-11; SMILES N=C(N)NCCC[C@@H]1NC(=O)[C@@H]2CSSC[C@H](NC(=O)[C@H](Cc3ccc4ccccc4c3)NC(=O)[C@H](CCCNC(=N)N)NC(=O)[C@H](CCCNC(=N)N)NC(=O)[C@H]3CCCN3C(=O)CNC1=O)C(=O)N[C@@H](Cc1ccc(O)cc1)C(=O)N[C@@H](CCC(N)=O)C(=O)N[C@@H](CCCCN)C(=O)N1CCC[C@@H]1C(=O)N1CCC[C@H]1C(=O)N[C@@H](Cc1ccc(O)cc1)C(=O)N[C@@H](CCCNC(=N)N)C(=O)N[C@@H](Cc1c[nH]c3ccccc13)C(=O)N2) [Example 73],8.8,
cyclo(YR[Cit]CRG[dP]RR[2Nal]CYKK[dP]P) (disulfide 4-11; SMILES N=C(N)NCCC[C@@H]1NC(=O)[C@@H]2CSSC[C@H](NC(=O)[C@H](Cc3ccc4ccccc4c3)NC(=O)[C@H](CCCNC(=N)N)NC(=O)[C@H](CCCNC(=N)N)NC(=O)[C@H]3CCCN3C(=O)CNC1=O)C(=O)N[C@@H](Cc1ccc(O)cc1)C(=O)N[C@@H](CCCCN)C(=O)N[C@@H](CCCCN)C(=O)N1CCC[C@@H]1C(=O)N1CCC[C@H]1C(=O)N[C@@H](Cc1ccc(O)cc1)C(=O)N[C@@H](CCCNC(=N)N)C(=O)N[C@@H](CCCNC(N)=O)C(=O)N2) [Example 79],2.4,
cyclo(YRPCRG[dP]RR[2Nal]CYQK[dP]P) (disulfide 4-11; SMILES N=C(N)NCCC[C@@H]1NC(=O)[C@@H]2CSSC[C@H](NC(=O)[C@H](Cc3ccc4ccccc4c3)NC(=O)[C@H](CCCNC(=N)N)NC(=O)[C@H](CCCNC(=N)N)NC(=O)[C@H]3CCCN3C(=O)CNC1=O)C(=O)N[C@@H](Cc1ccc(O)cc1)C(=O)N[C@@H](CCC(N)=O)C(=O)N[C@@H](CCCCN)C(=O)N1CCC[C@@H]1C(=O)N1CCC[C@H]1C(=O)N[C@@H](Cc1ccc(O)cc1)C(=O)N[C@@H](CCCNC(=N)N)C(=O)N1CCC[C@H]1C(=O)N2) [Example 74],19.5,
cyclo(YRHCRG[dP]RR[2Nal]CYQK[dP]P) (disulfide 4-11; SMILES N=C(N)NCCC[C@@H]1NC(=O)[C@@H]2CSSC[C@H](NC(=O)[C@H](Cc3ccc4ccccc4c3)NC(=O)[C@H](CCCNC(=N)N)NC(=O)[C@H](CCCNC(=N)N)NC(=O)[C@H]3CCCN3C(=O)CNC1=O)C(=O)N[C@@H](Cc1ccc(O)cc1)C(=O)N[C@@H](CCC(N)=O)C(=O)N[C@@H](CCCCN)C(=O)N1CCC[C@@H]1C(=O)N1CCC[C@H]1C(=O)N[C@@H](Cc1ccc(O)cc1)C(=O)N[C@@H](CCCNC(=N)N)C(=O)N[C@@H](Cc1c[nH]cn1)C(=O)N2) [Example 70],19.5,
cyclo(YR[Cit]CRG[dP]RR[2Nal]CYAK[dP]P) (disulfide 4-11; SMILES C[C@@H]1NC(=O)[C@H](Cc2ccc(O)cc2)NC(=O)[C@@H]2CSSC[C@H](NC(=O)[C@H](CCCNC(N)=O)NC(=O)[C@H](CCCNC(=N)N)NC(=O)[C@H](Cc3ccc(O)cc3)NC(=O)[C@@H]3CCCN3C(=O)[C@H]3CCCN3C(=O)[C@H](CCCCN)NC1=O)C(=O)N[C@@H](CCCNC(=N)N)C(=O)NCC(=O)N1CCC[C@@H]1C(=O)N[C@@H](CCCNC(=N)N)C(=O)N[C@@H](CCCNC(=N)N)C(=O)N[C@@H](Cc1ccc3ccccc3c1)C(=O)N2) [Example 80],2.9,
cyclo(YR[Cit]CRG[dP][Phe(4-F)]R[2Nal]CYQK[dP]P) (disulfide 4-11; SMILES N=C(N)NCCC[C@@H]1NC(=O)[C@@H]2CSSC[C@H](NC(=O)[C@H](Cc3ccc4ccccc4c3)NC(=O)[C@H](CCCNC(=N)N)NC(=O)[C@H](Cc3ccc(F)cc3)NC(=O)[C@H]3CCCN3C(=O)CNC1=O)C(=O)N[C@@H](Cc1ccc(O)cc1)C(=O)N[C@@H](CCC(N)=O)C(=O)N[C@@H](CCCCN)C(=O)N1CCC[C@@H]1C(=O)N1CCC[C@H]1C(=O)N[C@@H](Cc1ccc(O)cc1)C(=O)N[C@@H](CCCNC(=N)N)C(=O)N[C@@H](CCCNC(N)=O)C(=O)N2) [Example 76],5.6,
cyclo(YR[Cit]VRRR[2Nal]FY[Cit]K[dP]P) (SMILES CC(C)[C@@H]1NC(=O)[C@H](CCCNC(N)=O)NC(=O)[C@H](CCCNC(=N)N)NC(=O)[C@H](Cc2ccc(O)cc2)NC(=O)[C@@H]2CCCN2C(=O)[C@H]2CCCN2C(=O)[C@H](CCCCN)NC(=O)[C@H](CCCNC(N)=O)NC(=O)[C@H](Cc2ccc(O)cc2)NC(=O)[C@H](Cc2ccccc2)NC(=O)[C@H](Cc2ccc3ccccc3c2)NC(=O)[C@H](CCCNC(=N)N)NC(=O)[C@H](CCCNC(=N)N)NC(=O)[C@H](CCCNC(=N)N)NC1=O) [Example 4],,2540
cyclo(YRYCRG[dP]RR[2Nal]CYQK[dP]P) (disulfide 4-11; SMILES N=C(N)NCCC[C@@H]1NC(=O)[C@@H]2CSSC[C@H](NC(=O)[C@H](Cc3ccc4ccccc4c3)NC(=O)[C@H](CCCNC(=N)N)NC(=O)[C@H](CCCNC(=N)N)NC(=O)[C@H]3CCCN3C(=O)CNC1=O)C(=O)N[C@@H](Cc1ccc(O)cc1)C(=O)N[C@@H](CCC(N)=O)C(=O)N[C@@H](CCCCN)C(=O)N1CCC[C@@H]1C(=O)N1CCC[C@H]1C(=O)N[C@@H](Cc1ccc(O)cc1)C(=O)N[C@@H](CCCNC(=N)N)C(=O)N[C@@H](Cc1ccc(O)cc1)C(=O)N2) [Example 72],3.9,
cyclo(YR[Cit]CRG[dP]RR[2Nal]CYNK[dP]P) (disulfide 4-11; SMILES N=C(N)NCCC[C@@H]1NC(=O)[C@@H]2CSSC[C@H](NC(=O)[C@H](Cc3ccc4ccccc4c3)NC(=O)[C@H](CCCNC(=N)N)NC(=O)[C@H](CCCNC(=N)N)NC(=O)[C@H]3CCCN3C(=O)CNC1=O)C(=O)N[C@@H](Cc1ccc(O)cc1)C(=O)N[C@@H](CC(N)=O)C(=O)N[C@@H](CCCCN)C(=O)N1CCC[C@@H]1C(=O)N1CCC[C@H]1C(=O)N[C@@H](Cc1ccc(O)cc1)C(=O)N[C@@H](CCCNC(=N)N)C(=O)N[C@@H](CCCNC(N)=O)C(=O)N2) [Example 77],7,
cyclo(YR[Cit]CRG[dP]RR[2Nal]CYDK[dP]P) (disulfide 4-11; SMILES N=C(N)NCCC[C@@H]1NC(=O)[C@@H]2CSSC[C@H](NC(=O)[C@H](Cc3ccc4ccccc4c3)NC(=O)[C@H](CCCNC(=N)N)NC(=O)[C@H](CCCNC(=N)N)NC(=O)[C@H]3CCCN3C(=O)CNC1=O)C(=O)N[C@@H](Cc1ccc(O)cc1)C(=O)N[C@@H](CC(=O)O)C(=O)N[C@@H](CCCCN)C(=O)N1CCC[C@@H]1C(=O)N1CCC[C@H]1C(=O)N[C@@H](Cc1ccc(O)cc1)C(=O)N[C@@H](CCCNC(=N)N)C(=O)N[C@@H](CCCNC(N)=O)C(=O)N2) [Example 78],11,
cyclo(YR[Cit]CRG[dP]RR[2Nal]CYSK[dP]P) (disulfide 4-11; SMILES N=C(N)NCCC[C@@H]1NC(=O)[C@@H]2CSSC[C@H](NC(=O)[C@H](Cc3ccc4ccccc4c3)NC(=O)[C@H](CCCNC(=N)N)NC(=O)[C@H](CCCNC(=N)N)NC(=O)[C@H]3CCCN3C(=O)CNC1=O)C(=O)N[C@@H](Cc1ccc(O)cc1)C(=O)N[C@@H](CO)C(=O)N[C@@H](CCCCN)C(=O)N1CCC[C@@H]1C(=O)N1CCC[C@H]1C(=O)N[C@@H](Cc1ccc(O)cc1)C(=O)N[C@@H](CCCNC(=N)N)C(=O)N[C@@H](CCCNC(N)=O)C(=O)N2) [Example 81],4.9,
cyclo(YRECRG[dP]RR[2Nal]CYQK[dP]P) (disulfide 4-11; SMILES N=C(N)NCCC[C@@H]1NC(=O)[C@@H]2CSSC[C@H](NC(=O)[C@H](Cc3ccc4ccccc4c3)NC(=O)[C@H](CCCNC(=N)N)NC(=O)[C@H](CCCNC(=N)N)NC(=O)[C@H]3CCCN3C(=O)CNC1=O)C(=O)N[C@@H](Cc1ccc(O)cc1)C(=O)N[C@@H](CCC(N)=O)C(=O)N[C@@H](CCCCN)C(=O)N1CCC[C@@H]1C(=O)N1CCC[C@H]1C(=O)N[C@@H](Cc1ccc(O)cc1)C(=O)N[C@@H](CCCNC(=N)N)C(=O)N[C@@H](CCC(=O)O)C(=O)N2) [Example 75],3.5,
cyclo(YRRCRG[dP]RR[2Nal]CYQK[dP]P) (disulfide 4-11; SMILES N=C(N)NCCC[C@@H]1NC(=O)[C@@H]2CSSC[C@H](NC(=O)[C@H](Cc3ccc4ccccc4c3)NC(=O)[C@H](CCCNC(=N)N)NC(=O)[C@H](CCCNC(=N)N)NC(=O)[C@H]3CCCN3C(=O)CNC1=O)C(=O)N[C@@H](Cc1ccc(O)cc1)C(=O)N[C@@H](CCC(N)=O)C(=O)N[C@@H](CCCCN)C(=O)N1CCC[C@@H]1C(=O)N1CCC[C@H]1C(=O)N[C@@H](Cc1ccc(O)cc1)C(=O)N[C@@H](CCCNC(=N)N)C(=O)N[C@@H](CCCNC(=N)N)C(=O)N2) [Example 69],1.8,
